Earlier results as cited in paper PMC8509922.
Values joined by “and” are separate entries in the source; they are usually repeats but may differ in a detail not shown here. Identical values can stand only once. Like-named read-outs stand apart in the source and are kept apart here. Values belong to the substance of their own block, whether it stands above or below them.

Key:
BmpR1 (Homo sapiens) [1] = biological target: BmpR1 (Homo sapiens) (UniProt P36894)
BmpR1 (Homo sapiens) [2] = biological target: BmpR1 (Homo sapiens) (UniProt P36894); remark: listed apart in the source
Acvr1 (Homo sapiens) [3] = biological target: Acvr1 (Homo sapiens) (UniProt Q04771)
Acvr1 (Homo sapiens) [4] = biological target: Acvr1 (Homo sapiens) (UniProt Q04771); remark: listed apart in the source

Sequence of UniProt Q04771 (Q04771 21-123): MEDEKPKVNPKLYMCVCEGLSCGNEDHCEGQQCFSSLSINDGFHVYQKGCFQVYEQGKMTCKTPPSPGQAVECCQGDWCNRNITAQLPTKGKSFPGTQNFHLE
Sequence of UniProt P36894 (P36894 24-152): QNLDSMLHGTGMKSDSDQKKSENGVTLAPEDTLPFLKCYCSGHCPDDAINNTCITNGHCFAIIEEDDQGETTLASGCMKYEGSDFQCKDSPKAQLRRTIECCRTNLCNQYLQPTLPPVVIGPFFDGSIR

Kd (BmpR1 (Homo sapiens) [1]): 0.8 nM
Substance: Bmp2 (from UniProt P12643)

Kd (BmpR1 (Homo sapiens) [2]): 56 nM
Kd (Acvr1 (Homo sapiens) [3]): 500 nM
Substance: Bmp7 (from UniProt P18075)

Kd (Acvr1 (Homo sapiens) [4]): 512 nM and 1020 nM
Substance: Bmp2/7 heterodimer (from UniProt P12643)
